Experimental data as given in patent US20250092146A1, “ANTI-CCR8 ANTIBODIES, CONJUGATES, AND USES THEREOF” (Abilita Bio, Inc., priority 2023, published 2025).
Positions count from the first letter of the chain named.

Columns and labels:
[1] = molecular target: T1, HuT-78 cells that naturally express human CCR8 (Homo sapiens, UniProt P51685); assay: Flow cytometry binding of yeast-display optimized VHH-Fc antibodies to HuT-78 cells; details: Table 13; for EC50: clones tested as VHH-Fc fusions (human IgG1 Fc), HuT-78 cells; for Normalized Bmax (%): normalized to VHH-1 or VHH-2 depending on clone family
T1 construct: HuT-78 cells that naturally express human CCR8 were used as target cells; endogenous in cells; host or cells: HuT-78
Description: Top VHH sequences were chosen from the FACS sorted populations based on an analysis of improved binding performance relative to the parental sequences and evidence of sequence enrichment by NGS. Candidate VHH were then cloned as VHH-Fc fusions to the short hinge of the IgG1 Fc domain (SEQ ID NO: 34), expressed in HEK293 cells as described earlier and purified for binding evaluation. Bmax values are shown as normalized to VHH-1 or VHH-2 depending on the clone family. […] Mutations are referenced by position according to the IMGT definition.

[2] = molecular target: T2, hCCR8 (Homo sapiens, UniProt P51685); assay: Flow cytometry binding of VHH-Fc fusion antibodies to hCCR8 on stably transfected HEK293 cells; details: for EC50: HEK293 hCCR8
T2 construct: expressed in transfected cells
Description: VHH-Fc fusion antibodies were evaluated for their ability to bind to hCCR8 on stably transfected HEK293 cells by means of flow cytometry. Cells were incubated with different concentrations of the bivalent VHH-Fc fusions for 60 minutes at 4° C., followed by two washes with FACS buffer, followed by 30 minutes incubation at 4° C. with the Zenon R-Phycoerythrin Anti-human IgG (ThermoFisher Scientific, #Z-25455), and two additional washing steps. Data were plotted and fit using GraphPad Prism software. EC50 and Bmax values individual antibodies were calculated from the resulting dose-response curves. Bivalent VHH-Fc fusions (Seq ID NOs: 31, 33, and 87-103) of 19 different VHH domains (SEQ ID NOs: 27, 28, and 70-86) were tested for cell binding and results are shown in Table 7. […]
(§1) VHH-Fc fusion DNA constructs were then generated comprising encoding humanized VHH sequences (SEQ ID NOs: 106-111) fused in frame to the human IgG1 (SEQ ID NO: 34) directly to the short hinge sequence in the pFuse expression vector, and were expressed, purified and analyzed for binding to HEK293 cells expressing human CCR8 as in Example 5. Binding curves for VHH-Fc antibodies comprised of parental VHH-1 and the humanized VHH derivatives VHH-1.2-Fc and VHH-1.3-Fc are shown in FIG. 9A. Binding curves for VHH-Fc antibodies comprised of parental VHH-2 and the humanized VHH derivatives VHH-2-Fc, VHH-2.2-Fc and VHH-2.3-Fc, are shown in FIG. 9B. Cell binding EC50 values, normalized Bmax (relative to respective parental clone) data and humanizing mutations are shown in Table 10 below.
Approaches such as in vitro affinity maturation and rational mutagenesis can be performed to regain binding affinity and/or stability lost through humanization. In vitro affinity maturation generally involves building and amino acid substitution library where amino acid positions are varied across the CDRs and/or framework at a defined set of positions using sets of amino acids chosen to introduce new chemical diversity. The paratope residues within the CDR regions are of course key to antigen binding and care must be taken not to disrupt important structures while attempting to evolve improve antibody behavior. One approach to identify positions that are important to the maintenance of binding properties is to perform paratope mapping using single scanning alanine substitutions across antibody CDR regions. In this approach, residues that are critical to the maintenance of antibody binding to the antigen can be identified and at the same time permissive sites can be identified where it may be possible to make substitutions of other amino acids desirable for subsequent affinity maturation library construction. Site directed mutagenesis was used to make single alanine substitutions at each residue in the CDRs of VHH-1 (SEQ ID NO: 27) and VHH-2 (SEQ ID NO: 28). Changes in VHH-1 CDR amino acids to alanine are indicated in Table 11 (SEQ ID NOs: 112-137) and for VHH-2 CDRs (SEQ ID NO: 138-162) in Table 12. Mutation positions and residue changes to alanine with respect to the in the parental VHH sequences are referenced by their IMGT position. VHH domains containing the indicated modified CDR-1, CDR-2 or CDR-3 domains were used to construct Fc fusions by direct grafting to the short hinge of the human Fc domain (SEQ ID NO: 34). VHH-Fc constructs were expressed, purified and analyzed for binding to HEK293 cells expressing hCCR8 and the results are reported in Table 11 and Table 12. EC50 values are reported for each Fc fusion antibody containing a modified CDR, along with its respective Bmax value normalized to the to the matched wild type VHH-1-Fc or VHH-2-Fc fusion antibody.

[3] = Production and purification of humanized VHH-Fc from cells; details: most humanized variants
Description: as §1
Humanization within the framework regions of VHH and other antibodies is known to often have negative impacts of on protein properties such as destabilization of the VHH fold or loss of binding affinity. This is most common when humanized versions of antibodies are constructed by “CDR grafting”, where the individual CDRs are transferred directly to a fully human framework.

[4] = test system: MC38 mouse colon cancer cells; assay: MC38 tumor growth inhibition study in human CCR8 transgenic mice; type: in vivo; details: 30 mg/kg IV 3 times per week, Day 16, p=0.0169
Description: Human CCR8 transgenic (hCCR8-tg) mice (#110096, Biocytogen, China) were inoculated with MC38 mouse colon cancer cells subcutaneously. After the average tumor size reached approximately 150 mm3, mice were randomized based on tumor size and treatment was initiated. Mice were treated IV 3 times per week with 30 mg/kg VHH-1-mFc (SEQ ID NO: 239) or an IgG2a Fc control (recombinant IgG2a Fc, #BE0097, BioXcell). Tumor volume was measured twice per week using a caliper, and the volume expressed in mm3 using the formula: V (mm3)=(a×b2)/2 where a and b were the long and short diameters of the tumor, respectively. The tumor size was then used for calculations of tumor growth inhibition (T/C) values (where T was the treatment group and C is the control group). The T/C value (in percent) is an indication of antitumor effectiveness; T and C were the mean volume of the treated and control groups, respectively, on a given day. […] To determine whether group treated with various test articles had statistically significant anti-tumor effects compared to the mouse IgG2a Fc control, the MC38 tumor volumes were analyzed by one-way ANOVA and multiple comparison test at day 16. […] In addition, the tumor growth inhibition (TGI) was also calculated during the study until Day 16. On Day 16, the TGIs for VHH-1-mFc were 50.3%, (p=0.0169).

[5] = molecular target: T2, hCCR8; assay: Flow cytometry binding of purified VHHs to HEK293 cells expressing hCCR8; details: monovalent VHH, FIG. 1
Description: Recombinant cells expressing hCCR8 were resuspended to a final concentration of 1.0×10^6 cells/ml in FACS buffer. Surface expression of hCCR8 on transiently transfected HEK293 cells was confirmed by flow cytometry of HEK293 cells stained with PE anti-hCCR8 (Clone 433H, BD Biosciences, #566897) antibody. Dilutions of purified VHHs were incubated with cells for 60 min. Individual samples were distributed into 96-well v-bottom plates and incubated for one hour at 4° C. Bound VHH were then detected with an anti-VHH specific antibody (Goat anti-alpaca VHH, Jackson ImmunoResearch, #128-605-232). […] Binding was determined in parallel on HEK293 cells stably expressing the closely related receptor hCCR7 (SEQ ID NO: 41), as control for binding specificity.

T2 sequence (P51685 whole entry, the tested form may be a part): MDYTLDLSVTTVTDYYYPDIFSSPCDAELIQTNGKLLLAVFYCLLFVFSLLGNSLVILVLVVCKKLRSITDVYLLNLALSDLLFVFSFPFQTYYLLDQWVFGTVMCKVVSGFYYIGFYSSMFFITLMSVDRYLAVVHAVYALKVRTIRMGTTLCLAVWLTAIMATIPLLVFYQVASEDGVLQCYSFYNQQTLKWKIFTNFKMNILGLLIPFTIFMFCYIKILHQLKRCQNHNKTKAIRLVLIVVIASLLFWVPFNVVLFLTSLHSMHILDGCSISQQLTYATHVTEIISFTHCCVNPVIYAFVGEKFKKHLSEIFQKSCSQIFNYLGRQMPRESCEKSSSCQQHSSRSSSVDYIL
T1 sequence (P51685 whole entry, the tested form may be a part): as above

B1: VHH-2.3: humanized VHH-2, version 3, SEQ ID NO: 111; Table 13 tested as Fc fusion (protein)
VHH: EVQLVESGGGLVQPGGSLRLSCAVSGSTSTINRFAWYRQAPGKGRELVAATSSRTSPNYADSVKGRFTFSRDNSKNTVYLQMNSLRAEDTAVYYCQARMAMGSSQVVYWGQGTTVTVSS
EC50 [1]: 1.19 nM
Normalized Bmax (%) [1]: 88.8%
binding to hCCR8 expressed on HEK293 cells (in words) ([2]; as Fc fusion antibodies): maintained their hCCR8 binding properties

B2: VHH-1.1: humanized VHH-1, version 1, SEQ ID NO: 106 (protein)
VHH: EVQLVESGGGLVQPGGSLRLSCAASGSTSSIRRIGWVRQAPGKGLEWVSRFSSGGGTNYADSVKGRFTISRDNSKNTLYLQMNSLRAEDTAVYYCAKRRLLGTSRVDYWGQGTTVTVSS
stability / producibility after humanization [3]: could not be produced and purified from cells

B3: VHH-2.1: humanized VHH-2, version 1, SEQ ID NO: 109 (protein)
VHH: B1 VHH with V24A, Y37V, R45L, L47W, A49S, F69I, V78L, Q96A, A97K
stability / producibility after humanization [3]: could not be produced and purified from cells

B4: VHH-1-mFc: VHH-1 fused to hinge of mouse IgG2a Fc, SEQ ID NO: 239 (protein)
chain: QVQLQESGGGLVQAGGSLRLSCVASGSTSSIRRIGWYRQAPGKQRELVARFSSGGGTNYADFVKGRFTISGDNAKNTMYLQMNSLKPEDTAVYYCSARRLLGTSRVDYWGQGTQVTVSSEPRGPTIKPCPPCKCPAPNLLGGPSVFIFPPKIKDVLMISLSPIVTCVVVDVSEDDPDVQISWFVNNVEVHTAQTQTHREDYNSTLRVVSALPIQHQDWMSGKEFKCKVNNKDLPAPIERTISKPKGSVRAPQVYVLPPPEEEMTKKQVTLTCMVTDFMPEDIYVEWTNNGKTELNYKNTEPVLDSDGSYFMYSKLRVEKKNWVERNSYSCSVVHEGLHNHHTTKSFSRTPGK
fold smaller tumor volume than isotype control [4]: 1.8 fold
tumor growth inhibition (TGI) [4]: 50.3%

B5: VHH-1: llama anti-hCCR8 VHH, SEQ ID NO: 27; in Tables 11 and 13 tested as human IgG1 Fc fusion (protein)
VHH: QVQLQESGGGLVQAGGSLRLSCVASGSTSSIRRIGWYRQAPGKQRELVARFSSGGGTNYADFVKGRFTISGDNAKNTMYLQMNSLKPEDTAVYYCSARRLLGTSRVDYWGQGTQVTVSSHHHHHH
modifications: left off: small tags and cut ends
EC50 [1]: 2.56 nM
Normalized Bmax (%) [1]: 100.0%
binding specificity hCCR8 vs human CCR7 [5]: specific binding to hCCR8 overexpressed in HEK293 cells and not to human CCR7
EC50 ([2]; Table 11, VHH-1 CDR alanine mutants as human Fc fusions): 1.73 nM
% Bmax ([2]; Table 11, normalized to wild type VHH-1-Fc): 100%

B6: VHH-3: llama anti-hCCR8 VHH, SEQ ID NO: 29 (protein)
VHH: QVQLQESGGGLVQAGGSLRLSCVASGSTSSIRRIGWYRQAPGKQRELVARFSSGGGTNYADFVKGRFTISGDNAKNTMYLQMNSLKPEDTAVYYCGARRLLGTSRVDYWGQGTQVTVSS
binding specificity hCCR8 vs human CCR7 [5]: specific binding to hCCR8 overexpressed in HEK293 cells and not to human CCR7

B7: VHH-2: llama anti-hCCR8 VHH, SEQ ID NO: 28; in Tables 12 and 13 tested as human IgG1 Fc fusion (protein)
VHH: QVQLQESGGGLVQAGGSLRLTCAVSGSTSTINRFAWYRQAPGKQRELVAATSSRTSPNYADSVKGRFRFSRDNARSAVYLQMDNLRPEDTAVYFCQARMAMGSSQVVYWGLGTQVTVSS
EC50 [1]: 0.24 nM
Normalized Bmax (%) [1]: 100.0%
EC50 ([2]; Table 12, VHH-2 CDR alanine mutants as human Fc fusions): 1.3 nM
% Bmax ([2]; Table 12, normalized to wild type VHH-2-Fc): 100%
